According to patent US20250320480A1, “Immunoglobulin Cleaving Enzyme” (priority 2021, published 2025):
Entries after “also recorded” stand apart in the source; their conditions may differ.

Columns and labels:
[1] = tested on: casein; experiment: General protease activity, EnzChek protease assay; format: biochemical; conditions: casein substrate, FabULOUS 5 μg, FabRICATOR 10 μg, IdeSORK2.0 10 μg
Protocol: FIG. 2. General protease activity. General protease activity was measured with the EnzCHECK protease assay, using casein as a substrate.
General protease activity was determined using the EnzChek Protease Assay kit, according to manufacturer's instructions. As a positive control the general protease FabULOUS (SpeB, 5 μg) was used, and as a negative control the IgG-specific protease FabRICATOR (IdeS, 10 μg). IdeSORK2.0 was added to a total quantity of 10 μg.

[2] = tested on: human IgG; experiment: Immunoglobulin specificity on SDS-PAGE: human IgG and IgG Fc fusion proteins; format: biochemical; conditions: for Hydrolysis of human IgG and IgG Fc fusion proteins: incubated with different antibodies at 37° C., SDS-PAGE
Protocol: (§1) FIG. 3. Specificity of IdeSork2.0. IdeSork2.0 was mixed with different antibodies and incubated o/n at 37° C. before analysis on SDS-PAGE. The enzyme itself is noted with an arrow. […] Mouse IgG1, mouse IgG2b and human IgA were not affected by IdeSork2.0.
(§2) Various antibodies and antibody based therapeutics were incubated with Xork, IdeS, or IdeZ (1:40 ratio) for 1 hour at 37° C. in PBS, with substrate concentrations ranging between 2-5 mg/mL, before being analyzed on SDS-PAGE. For kinetic studies, a substrate level of 2-200 μM IVIG was used during 10 min at 37° C. before being analyzed on a UHPLC system.

[3] = tested on: human IgA; experiment: Immunoglobulin specificity on SDS-PAGE: human IgA; format: biochemical; conditions: 37° C.
Protocol: as §1, §2

[4] = molecular target: mouse IgG1 (Mus musculus, UniProt P01868); experiment: Immunoglobulin specificity on SDS-PAGE: mouse IgG1; format: biochemical; conditions: 37° C., listed as IdeSork2.0
Protocol: as §1, §2

[5] = molecular target: mouse IgG2b (Mus musculus, UniProt P01867); experiment: Immunoglobulin specificity on SDS-PAGE: mouse IgG2b; format: biochemical; conditions: 37° C., listed as IdeSork2.0
Protocol: as §1, §2

[6] = tested on: horse IgG; experiment: Immunoglobulin specificity on SDS-PAGE: horse IgG; format: biochemical; conditions: o/n at 37° C.
Protocol: (§3) FIG. 11. Specificity of IdeSork2.0. IdeSork2.0 was mixed with different antibodies and incubated o/n at 37° C. before analysis on SDS-PAGE.
as §2

[7] = tested on: sheep IgG; experiment: Immunoglobulin specificity on SDS-PAGE: sheep IgG; format: biochemical; conditions: o/n at 37° C.
Protocol: as §3, §2

[8] = tested on: pig IgG; experiment: Immunoglobulin specificity on SDS-PAGE: pig IgG; format: biochemical; conditions: o/n at 37° C.
Protocol: as §3, §2

[9] = tested on: dog IgG; experiment: Immunoglobulin specificity on SDS-PAGE: dog IgG; format: biochemical; conditions: o/n at 37° C.
Protocol: as §3, §2

[10] = tested on: rat IgG; experiment: Immunoglobulin specificity on SDS-PAGE: rat IgG; format: biochemical; conditions: o/n at 37° C.
Protocol: as §3, §2

[11] = tested on: cow IgG; experiment: Immunoglobulin specificity on SDS-PAGE: cow IgG; format: biochemical
Protocol: as §2

[12] = tested on: denatured and reduced IgG; experiment: Activity on denatured and reduced IgG; format: biochemical; conditions: urea-denatured and reduced IgG, E:S 1:10, 5 hours at 37° C.
Protocol: FIG. 17. Denatured IgG was incubated with IgG hydrolases to investigate the necessity of a conserved 3D structure of the substrate for the enzymes to exert their function.
IgG that had been urea-denatured and reduced was incubated with IgG-specific enzymes at an E: S ratio of 1:10, incubating for 5 hours at 37° C. before analysis on SDS-PAGE.

[13] = tested on: human IgG1 hinge/CH2 region; experiment: Site of hydrolysis by IdeSORK2.0, LC-MS; format: biochemical; conditions: IgG1, IgG2, fusion proteins, LALA-mutated IgG
Protocol: FIG. 5. IdeSork2.0 hydrolyses the hinge of IgG at an identical site as IdeS. Commercial and non-commercial biologics were hydrolyzed with IdeSork2.0 and hydrolysis products were analyzed using LC-MS.
Several substrates (IgG1, IgG2, fusion proteins, LALA-mutated IgG) were subjected to hydrolysis by IdeSORK2.0 and the site of hydrolysis identified through LC-MS. […] This is the same site that is recognized by IdeS. The site of hydrolysis has been confirmed for etanercept, trastuzumab, cetuximab, as well as two non-commercial monoclonal antibodies.
Subunit fragments were denatured and reduced followed by reversed phase LC-MS analysis. Separation was achieved using a BioResolve RP mAb Polyphenol, 450 Å, 2.7 μm 2.1×100 mm, Waters (0.1% formic acid in water and 0.1% formic acid in 95% acetonitrile as mobile phases) and run on an Agilent 1260/1290 UHPLC system coupled to a Bruker Impact II QTOF mass spectrometer. The obtained data was evaluated in Bruker Compass DataAnalysis software using the MaxEnt algorithm for deconvolution and SNAP algorithm for determination of the monoisotopic molecular weights.

[14] = tested on: Trastuzumab; experiment: Mechanism of action: time course on Trastuzumab, non-reduced SDS-PAGE; format: biochemical, human; conditions: 1:20, 0-60 minutes
Protocol: FIG. 6. IdeSork2.0 is acting upon IgG in a two-step mechanism. To investigate if IdeSork2.0 is hydrolyzing both heavy chains of IgG simultaneously, or acting on them individually, we incubated Trastuzumab with IdeSork2.0 (1:20) and incubated for 0-60 minutes before analyzing on a non-reduced SDS-PAGE.
IdeS is known to first hydrolyze one chain of the antibody, and upon hydrolysis thereof, have lower affinity to the second chain. As such many antibodies may be only partly hydrolyzed at the start of the reaction. IdeSORK2.0 also generates fragments with single chain cleavage, however a large proportion of these are quickly processed to full cleavage (FIG. 6).

[15] = tested on: IgG2; experiment: Comparison to other IgG proteases: IgG2; format: biochemical; conditions: SDS-PAGE
Protocol: FIG. 10. IdeSork2.0 is having a similar activity compared to IdeS and IdeZ. To investigate if IdeSork2.0 is hydrolyzing IgG in a similar way as IdeS and IdeZ they were all incubated against IgG1 and IgG2 and analyzed on SDS-PAGE. The cleavage patterns look identical, with both IdeSork2.0 and IdeS having less activity towards IgG2.
To further look into the activity of IdeSORK2.0, its activity was compared with IdeS and IdeZ against both IgG1 and IgG2.

[16] = tested on: IgG in human serum; experiment: Activity of IgG hydrolases in human serum; format: biochemical; conditions: serum (100%), E:S 1:40, 0-4 hours at 37° C., non-reduced SDS-PAGE
Protocol: FIG. 15. Activity of IgG hydrolases in human serum. Serum (100%) was spiked with IgG hydrolases and activity was analyzed over time using non-reduced SDS-PAGE.
For serum activity assays, an E: S ratio of 1:40 (assuming 10 mg/mL IgG in serum) was used, incubating 0-4 hours at 37° C. before analysis on a non-reduced SDS-PAGE. All enzymes were supplied by Genovis AB.

Sequence of mouse IgG2b (P01867 1-335 isoform P01867-2): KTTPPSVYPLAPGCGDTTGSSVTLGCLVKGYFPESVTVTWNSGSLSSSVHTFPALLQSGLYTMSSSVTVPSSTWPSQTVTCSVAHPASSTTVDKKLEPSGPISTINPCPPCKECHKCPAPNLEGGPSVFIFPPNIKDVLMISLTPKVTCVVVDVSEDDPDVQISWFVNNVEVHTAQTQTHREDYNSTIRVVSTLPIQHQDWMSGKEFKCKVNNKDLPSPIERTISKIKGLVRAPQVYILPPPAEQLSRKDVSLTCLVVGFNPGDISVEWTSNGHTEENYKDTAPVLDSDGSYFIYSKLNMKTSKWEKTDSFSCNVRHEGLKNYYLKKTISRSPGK

B1: IdeSORK2.0: SEQ ID NO: 2 (N terminal 312 amino acids of IdeSORK) with added N terminal methionine and C-terminal His6; 319 amino acids (protein)
chain: MSKRKLLKKIEKKDTSSVLTQKKQTKTLWADGVQVDDKDFKPSTENFGTNYLAAEYGIGKGYYDINKKFDGTDDDLCSGVVAANQLHWWLDRNKDYIEKYRQQSKDNGVTIGNTDIFELNKLHDEDQSNFFDFIKKSFGNKFLQPERLLNMYINGYGYLTSQDKAKTSQPSPSKLNFFQKVFKNNLLTDKTPINDIDEFSSQTKNALQNHKVLAVSFASIKNRGLGHVVTVWGADFDENGKVVALYVTDSDDRSKNIGNAKLGMKKLRIEVSAQDSSTIKLTGFEDKNSGGSLRHLYSLSTGEQIWKKYFEETHHHHHH
modifications: (IdeSORK2.0) Protein of SEQ ID NO 2 engineered to include an additional N terminal methionine and a C-terminal protein purification tag - His6
[1]
  General protease activity (signal): no signs of general protease activity
[1]; listed as IdeSork 2.0
  General protease activity (signal): did not give any measurable signal
[2]
  Hydrolysis of monoclonal IgG4: can also hydrolyze
  Hydrolysis of polyclonal IgG (e.g. IVIG): near complete hydrolysis
  Hydrolysis of human IgG and IgG Fc fusion proteins: hydrolyzing all tested human IgGs and IgG Fc fusion proteins
[2]; IgG1 versus IgG2
  Preference between human IgG subclasses: slight preference for IgG1 over IgG2
[2]; human antibodies with altered hinge
  Effect of alterations of the hinge region (e.g. LALA-sequence) on activity: did not affect the activity
[2]; listed as IdeSork2.0
  Hydrolysis of human IgG and IgG Fc fusion proteins: hydrolyzed
[3]
  Activity towards human IgA: not active
[3]; listed as IdeSork2.0
  Activity towards human IgA: not affected
[4]
  Activity towards mouse IgG1: not affected
[5]
  Activity towards mouse IgG2b: not affected
[6]
  Activity on horse IgG: showed activity
[7]
  Activity on sheep IgG: only showed activity against horse and guinea pig IgG; also recorded: no visible effect
[8]
  Activity on pig (porcine) IgG: only showed activity against horse and guinea pig IgG; also recorded: no visible effect
[9]
  Activity on dog IgG: only showed activity against horse and guinea pig IgG; also recorded: no visible effect
[10]
  Activity on rat IgG: only showed activity against horse and guinea pig IgG; also recorded: no visible effect
[11]
  Activity on cow IgG: only showed activity against horse and guinea pig IgG
[12]
  Activity against denatured and reduced IgG: not active
[13]
  Number and position of hydrolytic sites: only a single hydrolytic site was detected
[13]; listed as IdeSork2.0
  Number and position of hydrolytic sites: only observed at a single site in the hinge region
[14]
  Mechanism of IgG heavy chain hydrolysis: activity is mediated one chain at a time
  Time course of IgG hydrolysis: Most IgG is hydrolyzed within the first few minutes
[14]; listed as IdeSork2.0
  Mechanism of IgG heavy chain hydrolysis: two-step reaction
[15]
  Hydrolysis of IgG2: able to hydrolyze
[15]; listed as IdeSork2.0
  Hydrolysis of IgG2: less activity
[16]
  Immunoglobulin cleavage activity in the presence of human serum: demonstrated immunoglobulin cleavage activity
